How the values were obtained:
AncSZ = test: phosphorylation enrichment, bacterial display (enrichment ratio); higher = better substrate or ligand; peptides without Tyr show the background
EPHB1 = EPHB1 (UniProt P54762); test: as above
EPHB2 = EPHB2 (UniProt P29323); test: as above
FGFR1 = FGFR1 (UniProt P11362); test: as above
FGFR3 = FGFR3 (UniProt P22607); test: as above
Fer (mouse) = test: as above
Fes = Fes (UniProt P07332); test: as above
Fyn = Fyn (UniProt P06241); test: as above
Hck = Hck (UniProt P08631); test: as above
Hck, sequence (P08631 whole entry, looked up): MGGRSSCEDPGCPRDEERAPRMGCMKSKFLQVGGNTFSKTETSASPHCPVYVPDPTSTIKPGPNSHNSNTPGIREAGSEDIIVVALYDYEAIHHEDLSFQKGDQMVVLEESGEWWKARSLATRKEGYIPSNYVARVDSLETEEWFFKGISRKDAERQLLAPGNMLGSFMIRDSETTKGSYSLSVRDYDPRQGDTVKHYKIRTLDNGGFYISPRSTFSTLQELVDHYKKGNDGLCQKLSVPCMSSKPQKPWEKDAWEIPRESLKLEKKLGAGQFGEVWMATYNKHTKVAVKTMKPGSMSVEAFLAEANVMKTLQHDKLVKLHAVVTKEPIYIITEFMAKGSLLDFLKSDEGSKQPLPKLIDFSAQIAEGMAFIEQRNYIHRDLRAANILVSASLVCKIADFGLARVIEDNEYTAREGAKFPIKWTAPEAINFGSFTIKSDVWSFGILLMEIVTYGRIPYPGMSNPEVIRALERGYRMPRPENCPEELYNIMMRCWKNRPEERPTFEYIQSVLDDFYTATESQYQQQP

Jak2 = Jak2 (UniProt O60674); test: as above
Jak2, sequence (O60674 whole entry, looked up): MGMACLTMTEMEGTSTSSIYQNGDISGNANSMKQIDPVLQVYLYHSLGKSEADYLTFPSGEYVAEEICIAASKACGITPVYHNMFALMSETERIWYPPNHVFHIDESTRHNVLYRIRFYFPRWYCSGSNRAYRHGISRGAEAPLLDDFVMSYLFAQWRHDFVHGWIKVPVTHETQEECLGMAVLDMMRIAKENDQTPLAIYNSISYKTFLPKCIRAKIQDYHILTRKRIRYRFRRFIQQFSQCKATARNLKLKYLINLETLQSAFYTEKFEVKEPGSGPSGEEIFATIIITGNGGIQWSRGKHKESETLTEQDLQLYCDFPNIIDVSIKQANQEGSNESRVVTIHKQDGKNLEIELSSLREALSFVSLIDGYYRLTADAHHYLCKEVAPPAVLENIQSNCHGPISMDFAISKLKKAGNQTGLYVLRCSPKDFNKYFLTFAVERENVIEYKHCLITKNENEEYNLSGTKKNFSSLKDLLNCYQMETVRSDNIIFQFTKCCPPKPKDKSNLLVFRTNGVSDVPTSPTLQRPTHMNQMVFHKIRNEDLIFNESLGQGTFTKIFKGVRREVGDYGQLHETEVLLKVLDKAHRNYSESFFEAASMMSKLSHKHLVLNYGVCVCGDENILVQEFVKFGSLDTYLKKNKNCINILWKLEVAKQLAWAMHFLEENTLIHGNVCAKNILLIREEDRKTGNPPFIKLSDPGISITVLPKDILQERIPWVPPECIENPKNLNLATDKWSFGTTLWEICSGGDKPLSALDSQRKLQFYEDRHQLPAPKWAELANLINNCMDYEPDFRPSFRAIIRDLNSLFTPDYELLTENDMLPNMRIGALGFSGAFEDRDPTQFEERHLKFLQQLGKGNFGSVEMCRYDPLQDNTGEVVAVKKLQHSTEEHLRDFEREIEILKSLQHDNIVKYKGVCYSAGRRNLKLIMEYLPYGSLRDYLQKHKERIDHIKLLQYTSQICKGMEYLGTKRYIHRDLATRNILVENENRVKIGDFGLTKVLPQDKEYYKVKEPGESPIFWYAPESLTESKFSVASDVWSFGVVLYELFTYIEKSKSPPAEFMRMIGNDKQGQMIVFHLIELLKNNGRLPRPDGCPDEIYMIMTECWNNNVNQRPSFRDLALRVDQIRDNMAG

MERTK = MERTK (UniProt Q12866); test: as above
MERTK, sequence (Q12866 whole entry, looked up): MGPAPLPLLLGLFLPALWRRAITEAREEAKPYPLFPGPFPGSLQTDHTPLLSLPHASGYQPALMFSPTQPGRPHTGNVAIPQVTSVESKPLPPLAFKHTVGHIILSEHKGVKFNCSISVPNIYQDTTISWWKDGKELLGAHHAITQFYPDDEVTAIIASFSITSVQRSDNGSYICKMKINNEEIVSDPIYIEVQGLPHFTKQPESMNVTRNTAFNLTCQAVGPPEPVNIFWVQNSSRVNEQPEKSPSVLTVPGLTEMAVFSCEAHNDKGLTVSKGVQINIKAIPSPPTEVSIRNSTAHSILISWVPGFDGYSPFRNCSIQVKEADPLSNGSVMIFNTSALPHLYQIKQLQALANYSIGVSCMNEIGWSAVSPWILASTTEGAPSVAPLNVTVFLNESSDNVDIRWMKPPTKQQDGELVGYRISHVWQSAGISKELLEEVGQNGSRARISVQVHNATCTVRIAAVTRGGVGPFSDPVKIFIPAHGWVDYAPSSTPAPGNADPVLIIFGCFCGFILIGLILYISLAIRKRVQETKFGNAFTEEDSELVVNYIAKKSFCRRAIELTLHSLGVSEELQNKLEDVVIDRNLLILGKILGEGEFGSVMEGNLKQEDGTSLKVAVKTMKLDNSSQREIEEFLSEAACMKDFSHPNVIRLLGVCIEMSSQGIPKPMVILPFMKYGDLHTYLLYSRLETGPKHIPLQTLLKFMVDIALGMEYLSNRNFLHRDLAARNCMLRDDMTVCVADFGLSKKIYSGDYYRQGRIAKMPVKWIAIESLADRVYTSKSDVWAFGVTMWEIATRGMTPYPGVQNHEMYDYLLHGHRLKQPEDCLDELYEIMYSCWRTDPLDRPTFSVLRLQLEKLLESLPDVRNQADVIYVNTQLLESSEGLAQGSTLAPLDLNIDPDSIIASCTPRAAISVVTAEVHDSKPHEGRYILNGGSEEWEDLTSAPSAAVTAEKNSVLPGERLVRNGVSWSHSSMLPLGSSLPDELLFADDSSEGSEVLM

c-Abl (mouse) = test: as above
c-Src = test: as above
Grb2 SH2 = Grb2 SH2 (UniProt P62993); test: SH2 binding enrichment of the phosphorylated peptide, bacterial display (enrichment ratio); higher = better substrate or ligand; peptides without Tyr show the background
SHP2-C SH2 = test: as above
c-Src SH2 = test: as above
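Wherever SH2 binding enrichment of the phosphorylated peptide, bacterial display is given: peptide library displayed on the E. coli surface as eCPX fusions, selected cells deep-sequenced, score is each peptide's frequency after selection divided by its frequency in the input.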
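Wherever phosphorylation enrichment, bacterial display is given: 11-residue human phosphosite peptides and single-mutation variants displayed on the E. coli surface, counted by deep sequencing, each peptide's frequency after selection divided by its frequency in the unselected input library; frequency after pTyr selection over input frequency; kinase dosed for 20-30% of maximal phosphorylation in three min.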

Fyn, sequence (P06241 whole entry, looked up): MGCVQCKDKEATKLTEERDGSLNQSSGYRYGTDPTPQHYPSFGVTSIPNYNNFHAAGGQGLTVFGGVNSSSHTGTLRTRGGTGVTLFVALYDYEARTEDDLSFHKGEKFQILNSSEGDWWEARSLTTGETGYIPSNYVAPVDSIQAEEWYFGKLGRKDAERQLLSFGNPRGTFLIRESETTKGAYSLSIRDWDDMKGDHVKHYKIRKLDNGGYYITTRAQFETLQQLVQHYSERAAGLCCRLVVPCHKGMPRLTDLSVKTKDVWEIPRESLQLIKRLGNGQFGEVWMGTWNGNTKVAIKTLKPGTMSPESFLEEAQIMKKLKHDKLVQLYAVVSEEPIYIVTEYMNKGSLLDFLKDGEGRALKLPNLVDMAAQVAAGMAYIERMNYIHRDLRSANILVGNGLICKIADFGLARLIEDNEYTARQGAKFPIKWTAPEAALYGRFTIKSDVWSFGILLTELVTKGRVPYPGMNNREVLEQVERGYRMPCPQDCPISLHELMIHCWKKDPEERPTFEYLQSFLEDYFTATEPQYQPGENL
EPHB2, sequence (P29323 whole entry, looked up): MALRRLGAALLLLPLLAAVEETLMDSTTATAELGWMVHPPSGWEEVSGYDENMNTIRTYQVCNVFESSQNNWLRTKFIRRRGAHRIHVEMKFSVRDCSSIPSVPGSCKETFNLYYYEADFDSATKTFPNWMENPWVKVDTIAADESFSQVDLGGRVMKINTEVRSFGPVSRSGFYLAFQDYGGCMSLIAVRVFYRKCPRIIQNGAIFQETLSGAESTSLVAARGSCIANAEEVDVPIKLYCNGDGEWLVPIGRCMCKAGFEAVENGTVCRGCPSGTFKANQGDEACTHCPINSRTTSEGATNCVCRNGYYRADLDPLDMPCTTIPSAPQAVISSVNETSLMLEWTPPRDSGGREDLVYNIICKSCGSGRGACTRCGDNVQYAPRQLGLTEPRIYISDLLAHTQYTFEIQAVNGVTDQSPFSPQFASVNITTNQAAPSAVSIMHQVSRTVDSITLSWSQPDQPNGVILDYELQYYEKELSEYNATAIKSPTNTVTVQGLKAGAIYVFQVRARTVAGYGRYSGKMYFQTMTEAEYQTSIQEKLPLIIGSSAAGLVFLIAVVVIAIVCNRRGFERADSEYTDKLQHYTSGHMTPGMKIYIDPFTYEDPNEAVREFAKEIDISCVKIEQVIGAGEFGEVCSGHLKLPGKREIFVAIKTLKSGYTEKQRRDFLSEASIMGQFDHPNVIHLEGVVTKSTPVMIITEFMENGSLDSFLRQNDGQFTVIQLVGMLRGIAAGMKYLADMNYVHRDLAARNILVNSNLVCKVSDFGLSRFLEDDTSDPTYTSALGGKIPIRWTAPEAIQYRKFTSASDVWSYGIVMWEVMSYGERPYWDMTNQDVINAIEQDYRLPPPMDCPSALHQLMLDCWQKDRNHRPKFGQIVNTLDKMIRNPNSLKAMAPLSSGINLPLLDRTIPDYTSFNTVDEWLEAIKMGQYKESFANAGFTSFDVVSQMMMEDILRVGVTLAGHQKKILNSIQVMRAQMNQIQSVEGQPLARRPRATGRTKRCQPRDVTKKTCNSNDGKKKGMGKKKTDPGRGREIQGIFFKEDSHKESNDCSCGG
Fes, sequence (P07332 whole entry, looked up): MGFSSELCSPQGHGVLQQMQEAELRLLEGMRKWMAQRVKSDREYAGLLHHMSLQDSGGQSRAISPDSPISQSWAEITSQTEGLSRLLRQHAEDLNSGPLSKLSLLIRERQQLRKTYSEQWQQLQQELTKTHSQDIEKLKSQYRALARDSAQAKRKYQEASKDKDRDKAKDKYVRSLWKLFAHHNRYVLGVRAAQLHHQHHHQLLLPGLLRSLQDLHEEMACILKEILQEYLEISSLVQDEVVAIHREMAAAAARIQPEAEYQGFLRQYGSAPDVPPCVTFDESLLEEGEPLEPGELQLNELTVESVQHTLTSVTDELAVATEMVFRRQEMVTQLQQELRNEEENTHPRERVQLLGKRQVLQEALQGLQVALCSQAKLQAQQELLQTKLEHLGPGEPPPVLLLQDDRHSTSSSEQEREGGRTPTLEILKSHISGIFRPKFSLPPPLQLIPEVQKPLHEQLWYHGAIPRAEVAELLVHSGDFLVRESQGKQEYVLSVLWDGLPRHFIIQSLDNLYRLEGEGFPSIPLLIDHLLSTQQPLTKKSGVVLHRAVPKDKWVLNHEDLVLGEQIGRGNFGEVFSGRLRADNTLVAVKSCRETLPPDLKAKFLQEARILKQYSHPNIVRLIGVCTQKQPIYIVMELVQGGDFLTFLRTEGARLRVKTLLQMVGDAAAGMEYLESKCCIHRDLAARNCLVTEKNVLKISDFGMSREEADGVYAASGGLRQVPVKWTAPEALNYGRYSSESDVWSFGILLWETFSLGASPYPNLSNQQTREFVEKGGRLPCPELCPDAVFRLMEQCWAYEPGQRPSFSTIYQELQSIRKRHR

Sequence	SH2 binding enrichment (Grb2 SH2)	SH2 binding enrichment (SHP2-C SH2)	SH2 binding enrichment (c-Src SH2)	phosphorylation enrichment (AncSZ)	phosphorylation enrichment (EPHB1)	phosphorylation enrichment (EPHB2)	phosphorylation enrichment (FGFR1)	phosphorylation enrichment (FGFR3)	phosphorylation enrichment (Fer (mouse))	phosphorylation enrichment (Fes)	phosphorylation enrichment (Fyn)	phosphorylation enrichment (Hck)	phosphorylation enrichment (Jak2)	phosphorylation enrichment (MERTK)	phosphorylation enrichment (c-Abl (mouse))	phosphorylation enrichment (c-Src)
NIKKEYAKMVQ [PMS2_Y181]	0.824	0.791	0.623	0.549	0.345	0.413	0.358	0.39	0.294	0.615	0.335	0.451	0.436	0.392	0.422	0.312
FFSSEYHCVGG [CTSC_Y345_Y347C_YF]	0.87	0.8	0.709	2.38	2.37	2.15	7.57	4.98	0.545	1.17	1.58	1.66	1.08	0.651	1.88	2.1
VTSLKYSTSPY [BRIP1_Y916]	0.754	0.42	0.43	0.751	0.52	0.498	0.487	0.467	0.451	0.655	0.523	0.516	0.6	0.493	0.537	0.542
PPGRSYSPCDY [TNS1_Y793_Y796C]	1	0.772	1.26	1.19	0.512	0.83	0.73	0.799	0.602	1.16	0.922	0.586	1.02	0.638	0.832	0.581
SVTCTYSPALY [TP53_Y126_N131Y]	0.569	0.638	0.397	1.76	0.808	0.786	0.523	0.929	0.695	1.71	1.27	0.932	1.33	0.495	0.91	1.21
IFGEEYEEQPR [ZMYM2_Y1033_V1028I]	0.819	0.77	0.561	1.47	0.663	0.647	0.611	0.849	0.721	1.28	0.535	0.608	1.16	0.451	0.662	0.591
LKLWDYRRGRC [WDR5B_Y239_S240R]	0.705	0.399	0.415	0.871	0.664	0.857	0.681	0.699	0.605	0.757	0.604	0.541	0.683	0.708	0.728	0.672
GRPMDYQVSIT [OTOF_Y254]	0.767	0.656	0.456	0.812	0.517	0.624	0.473	0.51	0.508	0.775	0.403	0.417	0.727	0.416	0.662	0.449
GDFLSYREFHL [ERBIN_Y1107_S1112L_YF]	0.786	0.845	0.556	0.915	0.599	0.527	0.501	0.792	0.737	0.956	0.467	0.653	0.824	0.423	0.805	0.543
RISRKYKKVRF [F8_Y442_G439S]	0.461	0.636	0.391	0.879	0.891	1.07	0.986	0.749	0.759	0.883	0.721	0.571	0.64	0.805	0.711	0.749
SESSFYKSLNL [NGEF_Y289_A286S_YF]	0.775	0.495	0.48	1.06	0.598	0.516	0.477	0.816	0.562	1.25	0.479	0.521	1.06	0.468	0.853	0.508
GLRFGYGVLGG [KRTAP20-2_Y15_YF]	0.674	0.893	0.493	0.742	0.413	0.488	0.358	0.574	0.387	0.782	0.548	0.376	0.562	0.311	0.519	0.434
RRFVFYFSFLL [PTEN_Y177_YF]	0.752	0.688	0.426	1.06	0.654	0.655	0.938	0.608	0.829	0.744	0.741	0.899	0.622	0.593	0.502	0.611
SRPTQYSSFSC [SPEM2_Y104]	2.26	2.11	0.857	0.764	0.584	0.511	0.557	0.578	0.486	0.986	0.627	0.598	0.816	0.619	0.752	0.7
RFLRGYQQDAY [HLA-A_Y137_R138Q]	0.631	0.713	0.43	0.894	0.519	0.535	0.548	0.633	0.64	0.81	0.349	0.404	0.803	0.665	0.843	0.715
QLCVSYPGGYT [PROS1_Y259_N258S]	0.861	0.784	0.541	1.03	0.588	0.719	0.592	0.665	0.591	0.888	0.597	0.416	0.862	0.402	0.683	0.4
TSPKSYPSQKH [CAP2_Y316]	0.823	0.433	0.538	0.613	0.364	0.359	0.357	0.497	0.45	0.526	0.434	0.363	0.463	0.44	0.53	0.466
SVQIVYKPVDL [MAPT_Y627]	0.951	0.845	0.515	1.17	0.698	0.499	0.409	0.65	0.467	1.12	0.4	0.455	0.891	0.376	0.689	0.464
TSQSQYSSFRE [CCDC170_Y323_F324S]	1.1	0.779	0.663	0.604	0.51	0.77	0.63	0.531	0.523	0.626	1.37	1.14	0.687	0.57	0.607	1.88

The next lines start with results.

SH2 binding enrichment (Grb2 SH2)	SH2 binding enrichment (SHP2-C SH2)	SH2 binding enrichment (c-Src SH2)	Sequence	phosphorylation enrichment (AncSZ)	phosphorylation enrichment (EPHB1)	phosphorylation enrichment (EPHB2)	phosphorylation enrichment (FGFR1)	phosphorylation enrichment (FGFR3)	phosphorylation enrichment (Fer (mouse))	phosphorylation enrichment (Fes)	phosphorylation enrichment (Fyn)	phosphorylation enrichment (Hck)	phosphorylation enrichment (Jak2)	phosphorylation enrichment (MERTK)	phosphorylation enrichment (c-Abl (mouse))	phosphorylation enrichment (c-Src)
1.04	0.738	0.456	MAQDIYRASFF [ALK_Y1278_R1275Q_YF]	0.683	0.353	0.499	0.462	0.482	0.446	0.69	1.52	2.06	0.711	0.66	12.2	2.28
1.1	0.588	0.753	ETDSEYVKLSK [C7orf57_Y70_A74S]	1.01	0.524	0.63	0.516	0.667	0.499	1.13	0.533	0.604	1.01	0.435	0.695	0.451
0.895	0.774	0.495	PSSRDYKHNIK [PIGN_Y227]	0.442	0.321	0.47	0.448	0.587	0.569	0.572	0.456	0.474	0.481	0.463	0.471	0.417
0.883	0.791	0.53	RPASQYPHQVP [ADAM12_Y895_P893S]	0.533	0.205	0.689	0.476	0.403	0.464	0.548	0.61	0.553	0.56	0.419	0.374	0.459
0.83	0.817	0.501	WPLKWYAPECI [ZAP70_Y506]	1.25	0.886	0.766	0.573	0.806	0.598	1.39	0.565	0.405	1.03	0.433	0.666	0.425
0.643	0.553	0.467	CSEETYRLMLQ [RET_Y981_M980T]	1.28	0.65	0.611	0.741	1.06	0.703	1.29	0.586	0.576	1.03	0.451	0.81	0.627
0.986	10.8	2.8	YSSLGYPLPEG [ZSWIM4_Y87_P89L]	1.01	0.53	0.758	1.28	1.06	0.687	0.904	2.63	2.05	0.785	7.91	0.978	1.57
1.18	2	0.696	TNYCLYLRSLE [MTM1_Y71_R69C]	1.67	1.93	1.52	0.814	1	0.614	1.46	0.545	0.668	1.29	1.19	0.883	0.887
0.696	0.39	0.536	DVRQEYSGMIL [PLXND1_Y616_P617S]	0.795	0.432	0.531	0.504	0.565	0.567	0.891	0.434	0.498	0.678	0.35	0.484	0.477
0.702	0.627	0.501	APIEDYGGGGG [B4GALT6_Y382]	0.872	0.649	0.599	0.523	0.697	0.505	0.965	0.566	0.509	0.794	0.461	0.661	0.449
0.982	0.765	0.584	CPASVYTKRCS [CPT2_Y508_R503C]	0.598	0.349	0.403	0.447	0.441	0.354	0.549	0.434	0.392	0.518	0.447	0.442	0.431
1.01	0.648	0.418	VAMDDYLKNVM [LRRK2_Y707]	0.903	0.517	0.409	0.493	0.59	0.333	0.956	0.449	0.418	0.831	0.51	0.659	0.409
0.597	0.41	0.458	GSPPPYRRRKR [MBD1_Y403]	0.665	0.451	0.625	0.464	0.601	0.608	0.605	0.535	0.537	0.519	0.593	0.55	0.638
0.656	0.582	0.411	MAPQMYEFHLP [NCAPD2_Y6]	0.795	4.23	3.16	0.443	0.719	19.6	0.766	0.506	0.624	0.592	5.35	0.473	0.655

From the supplement of paper PMC10065799, “High-throughput profiling of sequence recognition by tyrosine kinases and SH2 domains using bacterial peptide display” (eLife, 2023)
